Positions count from the first letter of the chain named.
B1: #9104a-A1 (antibody, human IgG4 S228P, lambda, V domains shown)
VH: EVQLLESGGGLVQPGGSLRLSCAASGFTFSNYYMSWVRQAPGKGLEWVSGIYYGNGIPYYADSVKDRFTISRDNSKNTLYLQMNSLRAEDTAVYYCARDTPGFDYWGQGTLVTVSS
VL: QSVLTQPPSASGTPGQRVTISCTGSSSNIGNNAVNWYQQLPGTAPKLLIYYDMFRPGGVPDRFSGSKSGTSASLAISGLRSEDEADYYCGAWDYSLSAYVFGGGTKLTVLG
notes: VH of #9104v-H10 with VL of #9104v-L20; full-length IgG, lambda
B2: #9104a-A7 (antibody, human IgG4 S228P, lambda, V domains shown)
VH: B1 VH with I51V, N55S, I57T, D66G
VL: B1 VL
notes: VH of #9104v-H31 with VL of #9104v-L20; full-length IgG, lambda
B3: #9104a-B4 (antibody, human IgG4 S228P, lambda, V domains shown)
VH: B1 VH with Q39R, N55S, I57T, D62A, D66G
VL: B1 VL with G57N
notes: VH of #9104v-H17 with VL of #9104v-L21; full-length IgG, lambda
B4: #9104a-A5 (antibody, human IgG4 S228P, lambda, V domains shown)
VH: B1 VH with N55S, I57V, D66G
VL: B1 VL
notes: VH of #9104v-H19 with VL of #9104v-L20; full-length IgG, lambda
B5: #9104a-C3 (antibody, human IgG4 S228P, lambda, V domains shown)
VH: B1 VH with N55S, D62N, D66G
VL: B1 VL with M53Q, G57S
notes: VH of #9104v-H13 with VL of #9104v-L23; full-length IgG, lambda
B6: #9104a-C2 (antibody, human IgG4 S228P, lambda, V domains shown)
VH: B1 VH with N55S, D66E
VL: B1 VL with M53Q, G57S
notes: VH of #9104v-H11 with VL of #9104v-L23; full-length IgG, lambda
B7: #9104a-D3 (antibody, human IgG4 S228P, lambda, V domains shown)
VH: B1 VH with N55S, D62N, D66G
VL: B1 VL with M53Y, R55S, P56H, G57S
notes: VH of #9104v-H13 with VL of #9104v-L64; full-length IgG, lambda
B8: #9104a-A2 (antibody, human IgG4 S228P, lambda, V domains shown)
VH: B1 VH with N55S, D66E
VL: B1 VL
notes: VH of #9104v-H11 with VL of #9104v-L20; full-length IgG, lambda
B9: #9104a-B8 (antibody, human IgG4 S228P, lambda, V domains shown)
VH: B1 VH with I51V, G54P, N55S, I57N, D66G
VL: B1 VL with G57N
notes: VH of #9104v-H33 with VL of #9104v-L21; full-length IgG, lambda
B10: #9104a-A8 (antibody, human IgG4 S228P, lambda, V domains shown)
VH: B1 VH with I51V, G54P, N55S, I57N, D66G
VL: B1 VL
notes: VH of #9104v-H33 with VL of #9104v-L20; full-length IgG, lambda
B11: #9104a-C6 (antibody, human IgG4 S228P, lambda, V domains shown)
VH: B1 VH with I51T, G54D, N55S, I57Y, P58V, D66G
VL: B1 VL with M53Q, G57S
notes: VH of #9104v-H27 with VL of #9104v-L23; full-length IgG, lambda
B12: #9104a-D2 (antibody, human IgG4 S228P, lambda, V domains shown)
VH: B1 VH with N55S, D66E
VL: B1 VL with M53Y, R55S, P56H, G57S
notes: VH of #9104v-H11 with VL of #9104v-L64; full-length IgG, lambda
B13: #9104a-A4 (antibody, human IgG4 S228P, lambda, V domains shown)
VH: B1 VH with Q39R, N55S, I57T, D62A, D66G
VL: B1 VL
notes: VH of #9104v-H17 with VL of #9104v-L20; full-length IgG, lambda
B14: #9104a-C5 (antibody, human IgG4 S228P, lambda, V domains shown)
VH: B1 VH with N55S, I57V, D66G
VL: B1 VL with M53Q, G57S
notes: VH of #9104v-H19 with VL of #9104v-L23; full-length IgG, lambda
B15: #9104a-C4 (antibody, human IgG4 S228P, lambda, V domains shown)
VH: B1 VH with Q39R, N55S, I57T, D62A, D66G
VL: B1 VL with M53Q, G57S
notes: VH of #9104v-H17 with VL of #9104v-L23; full-length IgG, lambda
B16: #9104a-B2 (antibody, human IgG4 S228P, lambda, V domains shown)
VH: B1 VH with N55S, D66E
VL: B1 VL with G57N
notes: VH of #9104v-H11 with VL of #9104v-L21; full-length IgG, lambda
B17: #9104a-D4 (antibody, human IgG4 S228P, lambda, V domains shown)
VH: B1 VH with Q39R, N55S, I57T, D62A, D66G
VL: B1 VL with M53Y, R55S, P56H, G57S
notes: VH of #9104v-H17 with VL of #9104v-L64; full-length IgG, lambda
B18: #9104a-A6 (antibody, human IgG4 S228P, lambda, V domains shown)
VH: B1 VH with I51T, G54D, N55S, I57Y, P58V, D66G
VL: B1 VL
notes: VH of #9104v-H27 with VL of #9104v-L20; full-length IgG, lambda
B19: #9104a-B3 (antibody, human IgG4 S228P, lambda, V domains shown)
VH: B1 VH with N55S, D62N, D66G
VL: B1 VL with G57N
notes: VH of #9104v-H13 with VL of #9104v-L21; full-length IgG, lambda
B20: #9104a-B5 (antibody, human IgG4 S228P, lambda, V domains shown)
VH: B1 VH with N55S, I57V, D66G
VL: B1 VL with G57N
notes: VH of #9104v-H19 with VL of #9104v-L21; full-length IgG, lambda
B21: #9104a-B1 (antibody, human IgG4 S228P, lambda, V domains shown)
VH: B1 VH
VL: B1 VL with G57N
notes: VH of #9104v-H10 with VL of #9104v-L21; full-length IgG, lambda
B22: #9104a-D1 (antibody, human IgG4 S228P, lambda, V domains shown)
VH: B1 VH
VL: B1 VL with M53Y, R55S, P56H, G57S
notes: VH of #9104v-H10 with VL of #9104v-L64; full-length IgG, lambda
B23: #9104a-B6 (antibody, human IgG4 S228P, lambda, V domains shown)
VH: B1 VH with I51T, G54D, N55S, I57Y, P58V, D66G
VL: B1 VL with G57N
notes: VH of #9104v-H27 with VL of #9104v-L21; full-length IgG, lambda
B24: #9104a-B7 (antibody, human IgG4 S228P, lambda, V domains shown)
VH: B1 VH with I51V, N55S, I57T, D66G
VL: B1 VL with G57N
notes: VH of #9104v-H31 with VL of #9104v-L21; full-length IgG, lambda
B25: #9104a-D5 (antibody, human IgG4 S228P, lambda, V domains shown)
VH: B1 VH with N55S, I57V, D66G
VL: B1 VL with M53Y, R55S, P56H, G57S
notes: VH of #9104v-H19 with VL of #9104v-L64; full-length IgG, lambda
B26: #9104a-C7 (antibody, human IgG4 S228P, lambda, V domains shown)
VH: B1 VH with I51V, N55S, I57T, D66G
VL: B1 VL with M53Q, G57S
notes: VH of #9104v-H31 with VL of #9104v-L23; full-length IgG, lambda
B27: #9104a-C1 (antibody, human IgG4 S228P, lambda, V domains shown)
VH: B1 VH
VL: B1 VL with M53Q, G57S
notes: VH of #9104v-H10 with VL of #9104v-L23; full-length IgG, lambda
B28: #9104a-A3 (antibody, human IgG4 S228P, lambda, V domains shown)
VH: B1 VH with N55S, D62N, D66G
VL: B1 VL
notes: VH of #9104v-H13 with VL of #9104v-L20; full-length IgG, lambda

Target: T1, recombinant human ASM protein (human, UniProt P17405 47-630)
T1 construct: Recombinant human ASM in solution; also called acid sphingomyelinase (ASM) protein
T1 sequence: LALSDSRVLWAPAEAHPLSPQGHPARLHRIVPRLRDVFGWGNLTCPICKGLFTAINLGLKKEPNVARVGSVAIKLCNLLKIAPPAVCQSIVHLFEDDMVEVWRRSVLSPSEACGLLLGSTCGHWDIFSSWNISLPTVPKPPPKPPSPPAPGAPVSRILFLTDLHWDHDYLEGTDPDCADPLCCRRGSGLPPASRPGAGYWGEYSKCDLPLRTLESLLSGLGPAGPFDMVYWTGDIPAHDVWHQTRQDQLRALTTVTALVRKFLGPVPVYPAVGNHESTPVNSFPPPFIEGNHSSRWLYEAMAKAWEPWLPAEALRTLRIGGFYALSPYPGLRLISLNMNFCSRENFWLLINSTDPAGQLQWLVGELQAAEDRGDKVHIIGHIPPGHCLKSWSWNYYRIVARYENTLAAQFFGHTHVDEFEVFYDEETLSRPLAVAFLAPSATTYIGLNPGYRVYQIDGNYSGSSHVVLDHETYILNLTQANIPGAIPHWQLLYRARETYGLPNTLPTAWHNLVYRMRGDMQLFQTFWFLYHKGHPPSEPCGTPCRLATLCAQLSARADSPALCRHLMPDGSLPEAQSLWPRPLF
Assay: BLI (Octet), antibody on AHC sensor
Protocol: The binding affinity, to the ASM protein, of the produced antibodies specifically binding to the ASM protein and the interactive dynamics therebetween were measured using an Octet® QK384 system (Pall Life Sciences).
First, an antibody specifically binding to the ASM protein produced in Example 1 was captured using an anti-human IgG Fc capture (AHC) biosensor, and 1.25, 2.5, 5, 10, or 20 nM recombinant human ASM protein solution was added thereto. […] The association constant (Kₐ), dissociation constant (Kd), and equilibrium dissociation constant (KD) for each antibody were determined using Octet® analysis software (Pall Life® Sciences). As a result, the binding affinities, to the human ASM protein, of the antibodies with mutations in the heavy chain CDR regions of the antibody #9104 as depicted in Table 1 are shown in Table 5, and the binding affinities, to the human ASM protein, of the antibodies with mutations of the light chain CDR regions in the antibody #9104 as depicted in Table 2 are shown in Table 6.
After the small-scale expression in the ExpiCHO cell line as described above, the binding affinity to the human ASM protein was investigated as described in Experimental Example 1. Specifically, the antibody produced by a combination of #9104v-H33 heavy chain variable region and #9104v-L23 light chain variable region was not expressed and thus excluded in the analysis of binding affinity to ASM protein.

Binder | Kd | koff | kon
B1 | 0.0518 nM | 1.14e-05 s⁻¹ | 220000 M⁻¹ s⁻¹
B2 | 0.0354 nM | 8.13e-06 s⁻¹ | 230000 M⁻¹ s⁻¹
B3 | 0.153 nM | 3.74e-05 s⁻¹ | 245000 M⁻¹ s⁻¹
B4 | 0.16 nM | 3.93e-05 s⁻¹ | 246000 M⁻¹ s⁻¹
B5 | 0.176 nM | 4.55e-05 s⁻¹ | 259000 M⁻¹ s⁻¹
B6 | 0.172 nM | 5.28e-05 s⁻¹ | 306000 M⁻¹ s⁻¹
B7 | 0.229 nM | 6.73e-05 s⁻¹ | 294000 M⁻¹ s⁻¹
B8 | 0.0961 nM | 1.98e-05 s⁻¹ | 206000 M⁻¹ s⁻¹
B9 | 0.28 nM | 6.44e-05 s⁻¹ | 230000 M⁻¹ s⁻¹
B10 | 0.237 nM | 4.51e-05 s⁻¹ | 191000 M⁻¹ s⁻¹
B11 | 0.928 nM | 0.000109 s⁻¹ | 117000 M⁻¹ s⁻¹
B12 | 0.149 nM | 5.22e-05 s⁻¹ | 351000 M⁻¹ s⁻¹
B13 | 0.162 nM | 3.54e-05 s⁻¹ | 219000 M⁻¹ s⁻¹
B14 | 0.192 nM | 6.46e-05 s⁻¹ | 337000 M⁻¹ s⁻¹
B15 | 0.203 nM | 6.42e-05 s⁻¹ | 317000 M⁻¹ s⁻¹
B16 | 0.114 nM | 3.03e-05 s⁻¹ | 266000 M⁻¹ s⁻¹
B17 | 0.206 nM | 5.09e-05 s⁻¹ | 248000 M⁻¹ s⁻¹
B18 | 0.768 nM | 6.96e-05 s⁻¹ | 90600 M⁻¹ s⁻¹
B19 | 0.0351 nM | 8.23e-06 s⁻¹ | 234000 M⁻¹ s⁻¹
B20 | < 0.001 nM | < 1e-07 s⁻¹ | 243000 M⁻¹ s⁻¹
B21 | 0.137 nM | 3.45e-05 s⁻¹ | 253000 M⁻¹ s⁻¹
B22 | 0.0948 nM | 2.79e-05 s⁻¹ | 294000 M⁻¹ s⁻¹
B23 | 1.14 nM | 9.41e-05 s⁻¹ | 82900 M⁻¹ s⁻¹
B24 | 0.163 nM | 4.07e-05 s⁻¹ | 250000 M⁻¹ s⁻¹
B25 | 0.13 nM | 3.39e-05 s⁻¹ | 261000 M⁻¹ s⁻¹
B26 | 0.152 nM | 4.56e-05 s⁻¹ | 300000 M⁻¹ s⁻¹
B27 | 0.139 nM | 3.76e-05 s⁻¹ | 271000 M⁻¹ s⁻¹
B28 | 0.0277 nM | 5.48e-06 s⁻¹ | 198000 M⁻¹ s⁻¹
